Results published in patent US20250262210A1 (TRUSTEES OF COLUMBIA UNIVERSITY IN THE CITY OF NEW YORK, published 2025).

Tests used:
Assay in all cases: IP/MS, LZTR1 R810W-FLAG, U87
GTF3C2 = target: T1, GTF3C2 (human, UniProt Q8WUA4 1-911, limits assumed)
T1 sequence (looked up): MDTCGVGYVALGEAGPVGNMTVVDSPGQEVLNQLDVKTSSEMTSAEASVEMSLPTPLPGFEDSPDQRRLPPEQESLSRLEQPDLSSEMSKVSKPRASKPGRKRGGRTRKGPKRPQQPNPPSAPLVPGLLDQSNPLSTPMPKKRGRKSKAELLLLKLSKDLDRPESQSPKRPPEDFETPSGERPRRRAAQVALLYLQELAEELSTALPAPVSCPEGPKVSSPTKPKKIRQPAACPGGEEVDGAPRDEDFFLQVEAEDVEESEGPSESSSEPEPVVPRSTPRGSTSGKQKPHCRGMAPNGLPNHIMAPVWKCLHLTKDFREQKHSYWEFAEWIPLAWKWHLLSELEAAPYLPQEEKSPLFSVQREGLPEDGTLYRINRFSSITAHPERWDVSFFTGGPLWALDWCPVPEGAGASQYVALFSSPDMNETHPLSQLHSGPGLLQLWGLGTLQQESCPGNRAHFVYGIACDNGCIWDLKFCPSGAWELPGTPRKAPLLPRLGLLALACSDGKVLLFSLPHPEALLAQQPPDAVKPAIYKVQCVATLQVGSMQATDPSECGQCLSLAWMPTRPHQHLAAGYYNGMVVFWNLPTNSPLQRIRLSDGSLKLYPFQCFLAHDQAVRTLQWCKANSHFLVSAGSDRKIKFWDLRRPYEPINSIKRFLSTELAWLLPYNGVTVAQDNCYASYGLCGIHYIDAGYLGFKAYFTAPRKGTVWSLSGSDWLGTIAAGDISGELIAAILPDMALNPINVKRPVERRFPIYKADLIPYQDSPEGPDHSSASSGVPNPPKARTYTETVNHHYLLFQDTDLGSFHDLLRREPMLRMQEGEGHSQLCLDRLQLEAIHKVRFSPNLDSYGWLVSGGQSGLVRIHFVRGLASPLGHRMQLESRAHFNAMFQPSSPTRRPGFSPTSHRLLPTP
Summary of the method: (§1)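 Extracted peptides in 3% acetonitrile/0.1% formic acid ran on a 50 cm C18 column into an Orbitrap Fusion, with MaxQuant identification and spectral counting.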

HECTD3 = target: T2, HECTD3 (human, UniProt Q5T447 2-861, limits assumed)
T2 sequence (looked up): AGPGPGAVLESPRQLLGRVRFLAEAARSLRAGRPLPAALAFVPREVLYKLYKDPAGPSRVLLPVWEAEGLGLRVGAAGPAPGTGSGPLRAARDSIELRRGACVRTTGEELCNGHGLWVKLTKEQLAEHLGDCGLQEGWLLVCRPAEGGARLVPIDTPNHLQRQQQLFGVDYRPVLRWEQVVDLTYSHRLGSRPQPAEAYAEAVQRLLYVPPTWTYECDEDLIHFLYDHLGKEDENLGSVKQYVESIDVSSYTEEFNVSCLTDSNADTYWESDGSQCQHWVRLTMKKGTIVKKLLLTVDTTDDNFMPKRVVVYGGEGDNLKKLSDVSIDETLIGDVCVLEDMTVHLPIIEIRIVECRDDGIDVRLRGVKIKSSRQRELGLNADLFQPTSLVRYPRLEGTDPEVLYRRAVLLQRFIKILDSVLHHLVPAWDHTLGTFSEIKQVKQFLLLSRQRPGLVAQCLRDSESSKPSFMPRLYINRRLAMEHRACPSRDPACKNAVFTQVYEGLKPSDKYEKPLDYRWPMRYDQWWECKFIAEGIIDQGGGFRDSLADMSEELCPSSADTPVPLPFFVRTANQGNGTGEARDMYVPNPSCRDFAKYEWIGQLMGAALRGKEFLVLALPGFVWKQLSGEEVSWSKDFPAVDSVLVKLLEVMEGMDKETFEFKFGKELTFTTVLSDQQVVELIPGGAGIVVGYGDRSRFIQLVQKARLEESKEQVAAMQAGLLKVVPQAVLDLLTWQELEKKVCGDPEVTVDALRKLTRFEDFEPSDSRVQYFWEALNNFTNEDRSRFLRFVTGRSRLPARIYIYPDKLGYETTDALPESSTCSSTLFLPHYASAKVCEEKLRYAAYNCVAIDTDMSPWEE
Summary of the method: as §1

MYO10 = MYO10 (human, UniProt Q9HD67 1-2058, limits assumed)
MYO10, sequence (Q9HD67 whole entry): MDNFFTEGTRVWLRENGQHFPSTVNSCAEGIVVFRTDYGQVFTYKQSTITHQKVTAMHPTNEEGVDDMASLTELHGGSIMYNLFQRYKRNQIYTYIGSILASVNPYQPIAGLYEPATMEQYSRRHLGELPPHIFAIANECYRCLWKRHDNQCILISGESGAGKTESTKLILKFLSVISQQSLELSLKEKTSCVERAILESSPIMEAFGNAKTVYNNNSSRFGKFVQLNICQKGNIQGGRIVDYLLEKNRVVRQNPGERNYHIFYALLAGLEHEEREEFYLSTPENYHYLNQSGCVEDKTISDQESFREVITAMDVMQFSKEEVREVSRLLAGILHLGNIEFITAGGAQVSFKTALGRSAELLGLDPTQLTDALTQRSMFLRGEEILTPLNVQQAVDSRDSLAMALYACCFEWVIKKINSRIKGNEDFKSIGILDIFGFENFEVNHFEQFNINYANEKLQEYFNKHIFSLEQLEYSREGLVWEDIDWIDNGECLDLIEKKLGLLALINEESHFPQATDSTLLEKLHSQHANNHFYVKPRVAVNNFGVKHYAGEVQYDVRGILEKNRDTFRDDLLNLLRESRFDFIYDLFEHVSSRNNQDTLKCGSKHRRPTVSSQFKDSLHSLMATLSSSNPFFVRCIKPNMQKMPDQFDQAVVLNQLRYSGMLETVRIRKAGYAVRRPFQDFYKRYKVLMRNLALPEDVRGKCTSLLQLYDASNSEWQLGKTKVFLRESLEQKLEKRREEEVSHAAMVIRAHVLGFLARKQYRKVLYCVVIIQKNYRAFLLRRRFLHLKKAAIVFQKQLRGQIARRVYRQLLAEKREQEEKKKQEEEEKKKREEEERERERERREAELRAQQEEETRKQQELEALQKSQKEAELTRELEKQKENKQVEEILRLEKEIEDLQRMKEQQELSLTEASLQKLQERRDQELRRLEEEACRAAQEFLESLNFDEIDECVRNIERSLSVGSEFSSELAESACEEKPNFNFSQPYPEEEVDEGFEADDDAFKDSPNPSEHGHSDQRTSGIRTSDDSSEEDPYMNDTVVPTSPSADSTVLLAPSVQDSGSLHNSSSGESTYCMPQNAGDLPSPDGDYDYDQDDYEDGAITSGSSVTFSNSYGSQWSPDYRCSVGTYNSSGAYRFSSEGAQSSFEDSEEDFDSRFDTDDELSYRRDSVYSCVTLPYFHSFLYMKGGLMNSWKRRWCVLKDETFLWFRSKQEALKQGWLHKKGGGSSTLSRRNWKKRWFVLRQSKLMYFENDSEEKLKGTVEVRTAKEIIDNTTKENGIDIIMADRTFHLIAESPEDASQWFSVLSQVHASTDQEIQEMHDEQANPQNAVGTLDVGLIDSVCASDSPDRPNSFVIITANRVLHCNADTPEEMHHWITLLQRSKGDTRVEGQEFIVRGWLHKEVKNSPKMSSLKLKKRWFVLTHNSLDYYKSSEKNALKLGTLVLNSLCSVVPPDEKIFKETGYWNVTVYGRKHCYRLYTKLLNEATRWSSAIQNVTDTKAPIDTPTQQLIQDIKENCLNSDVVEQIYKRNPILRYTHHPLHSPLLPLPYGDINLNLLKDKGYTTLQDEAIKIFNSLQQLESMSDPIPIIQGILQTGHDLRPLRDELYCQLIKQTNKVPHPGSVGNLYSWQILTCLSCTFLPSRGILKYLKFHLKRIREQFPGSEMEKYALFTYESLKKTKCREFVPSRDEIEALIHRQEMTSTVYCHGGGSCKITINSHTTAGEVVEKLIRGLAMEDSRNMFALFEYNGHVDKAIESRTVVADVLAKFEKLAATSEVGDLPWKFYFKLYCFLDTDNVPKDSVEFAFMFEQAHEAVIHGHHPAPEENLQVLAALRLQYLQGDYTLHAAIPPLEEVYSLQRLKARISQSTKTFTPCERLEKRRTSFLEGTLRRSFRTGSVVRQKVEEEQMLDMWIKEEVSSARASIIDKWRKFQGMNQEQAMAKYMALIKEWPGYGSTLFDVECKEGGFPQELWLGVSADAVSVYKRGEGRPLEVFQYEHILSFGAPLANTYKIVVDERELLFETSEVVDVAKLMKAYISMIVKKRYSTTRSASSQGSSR
Summary of the method: as §1

Measured: binding result

B1: LZTR1 R810W-FLAG (other, human, UniProt Q8N653 1-840, looked up)
chain: MAGPGSTGGQIGAAALAGGARSKVAPSVDFDHSCSDSVEYLTLNFGPFETVHRWRRLPPCDEFVGARRSKHTVVAYKDAIYVFGGDNGKTMLNDLLRFDVKDCSWCRAFTTGTPPAPRYHHSAVVYGSSMFVFGGYTGDIYSNSNLKNKNDLFEYKFATGQWTEWKIEGRLPVARSAHGATVYSDKLWIFAGYDGNARLNDMWTIGLQDRELTCWEEVAQSGEIPPSCCNFPVAVCRDKMFVFSGQSGAKITNNLFQFEFKDKTWTRIPTEHLLRGSPPPPQRRYGHTMVAFDRHLYVFGGAADNTLPNELHCYDVDFQTWEVVQPSSDSEVGGAEVPERACASEEVPTLTYEERVGFKKSRDVFGLDFGTTSAKQPTQPASELPSGRLFHAAAVISDAMYIFGGTVDNNIRSGEMYRFQFSCYPKCTLHEDYGRLWESRQFCDVEFVLGEKEECVQGHVAIVTARSRWLRRKITQARERLAQKLEQEAAPVPREAPGVAAGGARPPLLHVAIREAEARPFEVLMQFLYTDKIKYPRKGHVEDVLLIMDVYKLALSFQLCRLEQLCRQYIEASVDLQNVLVVCESAARLQLSQLKEHCLNFVVKESHFNQVIMMKEFERLSSPLIVEIVRRKQQPPPRTPLDQPVDIGTSLIQDMKAYLEGAGAEFCDITLLLDGHPRPAHKAILAARSSYFEAMFRSFMPEDGQVNISIGEMVPSRQAFESMLRYIYYGEVNMPPEDSLYLFAAPYYYGFYNNRLQAYCKQNLEMNVTVQNVLQILEAADKTQALDMKRHCLHIIVHQFTKVSKLPTLWSLSQQLLLDIIDSLASHISDKQCAELGADI
notes: Stably expressed in U87 cells by lentivirus; also called LZTR1-FLAG-R810W; LZTR1 RW; not shown: FLAG tag
binds: all assays above
